Patent US20250145711A1 (Janssen / Centocor, published 2025)

Tests used:
[1] = molecular target: T1, Human CD3 epsilon (CD3ε), on primary human pan T cells (human, UniProt P07766 23-207); test: flow cytometry on human T cells, anti-human IgG Fc A647 detection
T1 construct: Endogenous CD3 in the TCR complex on T cells; also called T-cell surface glycoprotein CD3 epsilon chain; T3E
Method in brief: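 Binding read by flow cytometry on live singlet cells (SYTOX green exclusion) after A647 anti-human IgG Fc secondary at 2 ug/mL, 30 min on ice. Antibody dilution series was first incubated 1 hr at 37 °C with thawed primary human pan T cells, 50,000 per well.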

[2] = molecular target: T1, Human CD3 epsilon (CD3ε), on primary …; test: cell-based or functional assay
[3] = molecular target: T1, Human CD3 epsilon (CD3ε), on primary …; test: cell-based or functional assay; remark: listed apart in the source

T1 sequence (P07766 23-207 limits assumed): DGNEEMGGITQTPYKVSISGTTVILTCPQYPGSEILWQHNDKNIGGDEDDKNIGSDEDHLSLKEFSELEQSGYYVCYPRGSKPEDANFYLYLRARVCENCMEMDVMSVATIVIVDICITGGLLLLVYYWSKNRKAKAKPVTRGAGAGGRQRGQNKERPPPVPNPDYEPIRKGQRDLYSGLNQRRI

| EC50 [1] | Binder | H929 Killing EC50 [2] | EC50, Cytotoxicity [3] |
| --- | --- | --- | --- |
| 24 nM | BC3B115 (bispecific antibody, human IgG1, kappa, L234A L235A, IgG1 BCMAxCD3; HC1: CD3B2089-N106S HL scFv-Fc; also called BC3B115.001; B2089 HL NtoS) QVQLVQSGAEVKKPGSSVKVSCKASGYTFTRSTMHWVRQAPGQGLEWMGYINPSSAYTNYAQKFQGRVTLTADKSTSTAYMELSSLRSEDTAVYYCASPQVHYDYSGFPYWGQGTLVTVSSGGSEGKSSGSGSESKSTGGSEIVLTQSPATLSASPGERVTLSCSASSSVSYMNWYQQKPGQAPRRWIYDSSKLASGVPARFSGSGSGRDYTLTISSLEPEDFAVYYCQQWSRNPPTFGGGTKVEIKEPKSSDKTHTCPPCPAPEAAGGPSVFLFPPKPKDTLMISRTPEVTCVVVSVSHEDPEVKFNWYVDGVEVHNAKTKPREEQYNSTYRVVSVLTVLHQDWLNGKEYKCKVSNKALPAPIEKTISKAKGQPREPQVYVYPPSREEMTKNQVSLTCLVKGFYPSDIAVEWESNGQPENNYKTTPPVLDSDGSFALVSKLTVDKSRWQQGNVFSCSVMHEALHNHYTQKSLSLSPG heavy: not shown light: EIVLTQSPGTLSLSPGERATLSCRASQSISSSFLTWYQQKPGQAPRLLIYGASSRATGIPDRFSGGGSGTDFTLTISRLEPEDFAVYYCQHYGSSPMYTFGQGTKLEIKRTVAAPSVFIFPPSDEQLKSGTASVVCLLNNFYPREAKVQWKVDNALQSGNSQESVTEQDSKDSTYSLSSTLTLSKADYEKHKVYACEVTHQGLSSPVTKSFNRGEC | 0.155 nM | 0.155 nM |
| 300 nM | BC3B119 (bispecific antibody, human IgG1, kappa, L234A L235A, IgG1 BCMAxCD3; HC1: CD3B2030-N106S LH scFv-Fc; also called BC3B119.001; B2030 LH NtoS) EIVLTQSPATLSASPGERVTLSCSASSSVSYMNWYQQKPGQAPRRWIYDSSKLASGVPARFSGSGSGRDYTLTISSLEPEDFAVYYCQQWSRNPPTFGGGTKVEIKGGSEGKSSGSGSESKSTGGSQVQLVQSGAEVKKPGSSVKVSCKASGYTFTRSTMHWVKQAPGQGLEWIGYINPSSAYTNYNQKFQGRVTLTADKSTSTAYMELSSLRSEDTAVYYCASPQVHYDYSGFPYWGQGTLVTVSSEPKSSDKTHTCPPCPAPEAAGGPSVFLFPPKPKDTLMISRTPEVTCVVVSVSHEDPEVKFNWYVDGVEVHNAKTKPREEQYNSTYRVVSVLTVLHQDWLNGKEYKCKVSNKALPAPIEKTISKAKGQPREPQVYVYPPSREEMTKNQVSLTCLVKGFYPSDIAVEWESNGQPENNYKTTPPVLDSDGSFALVSKLTVDKSRWQQGNVFSCSVMHEALHNHYTQKSLSLSPG heavy: not shown light: EIVLTQSPGTLSLSPGERATLSCRASQSISSSFLTWYQQKPGQAPRLLIYGASSRATGIPDRFSGGGSGTDFTLTISRLEPEDFAVYYCQHYGSSPMYTFGQGTKLEIKRTVAAPSVFIFPPSDEQLKSGTASVVCLLNNFYPREAKVQWKVDNALQSGNSQESVTEQDSKDSTYSLSSTLTLSKADYEKHKVYACEVTHQGLSSPVTKSFNRGEC | 10 nM | 10 nM |
| 257 nM | BC3B118 (bispecific antibody, human IgG1, kappa, L234A L235A, IgG1 BCMAxCD3; HC1: CD3B2030-N106G LH scFv-Fc; also called BC3B118.001; B2030 LH NtoG) EIVLTQSPATLSASPGERVTLSCSASSSVSYMNWYQQKPGQAPRRWIYDSSKLASGVPARFSGSGSGRDYTLTISSLEPEDFAVYYCQQWSRNPPTFGGGTKVEIKGGSEGKSSGSGSESKSTGGSQVQLVQSGAEVKKPGSSVKVSCKASGYTFTRSTMHWVKQAPGQGLEWIGYINPSSAYTNYNQKFQGRVTLTADKSTSTAYMELSSLRSEDTAVYYCASPQVHYDYGGFPYWGQGTLVTVSSEPKSSDKTHTCPPCPAPEAAGGPSVFLFPPKPKDTLMISRTPEVTCVVVSVSHEDPEVKFNWYVDGVEVHNAKTKPREEQYNSTYRVVSVLTVLHQDWLNGKEYKCKVSNKALPAPIEKTISKAKGQPREPQVYVYPPSREEMTKNQVSLTCLVKGFYPSDIAVEWESNGQPENNYKTTPPVLDSDGSFALVSKLTVDKSRWQQGNVFSCSVMHEALHNHYTQKSLSLSPG heavy: not shown light: EIVLTQSPGTLSLSPGERATLSCRASQSISSSFLTWYQQKPGQAPRLLIYGASSRATGIPDRFSGGGSGTDFTLTISRLEPEDFAVYYCQHYGSSPMYTFGQGTKLEIKRTVAAPSVFIFPPSDEQLKSGTASVVCLLNNFYPREAKVQWKVDNALQSGNSQESVTEQDSKDSTYSLSSTLTLSKADYEKHKVYACEVTHQGLSSPVTKSFNRGEC | 0.745 nM | 0.745 nM |
| 60.9 nM | BC3B117 (bispecific antibody, human IgG1, kappa, L234A L235A, IgG1 BCMAxCD3; HC1: CD3B2030-N106A LH scFv-Fc; also called BC3B117.001; B2030 LH NtoA) EIVLTQSPATLSASPGERVTLSCSASSSVSYMNWYQQKPGQAPRRWIYDSSKLASGVPARFSGSGSGRDYTLTISSLEPEDFAVYYCQQWSRNPPTFGGGTKVEIKGGSEGKSSGSGSESKSTGGSQVQLVQSGAEVKKPGSSVKVSCKASGYTFTRSTMHWVKQAPGQGLEWIGYINPSSAYTNYNQKFQGRVTLTADKSTSTAYMELSSLRSEDTAVYYCASPQVHYDYAGFPYWGQGTLVTVSSEPKSSDKTHTCPPCPAPEAAGGPSVFLFPPKPKDTLMISRTPEVTCVVVSVSHEDPEVKFNWYVDGVEVHNAKTKPREEQYNSTYRVVSVLTVLHQDWLNGKEYKCKVSNKALPAPIEKTISKAKGQPREPQVYVYPPSREEMTKNQVSLTCLVKGFYPSDIAVEWESNGQPENNYKTTPPVLDSDGSFALVSKLTVDKSRWQQGNVFSCSVMHEALHNHYTQKSLSLSPG heavy: not shown light: EIVLTQSPGTLSLSPGERATLSCRASQSISSSFLTWYQQKPGQAPRLLIYGASSRATGIPDRFSGGGSGTDFTLTISRLEPEDFAVYYCQHYGSSPMYTFGQGTKLEIKRTVAAPSVFIFPPSDEQLKSGTASVVCLLNNFYPREAKVQWKVDNALQSGNSQESVTEQDSKDSTYSLSSTLTLSKADYEKHKVYACEVTHQGLSSPVTKSFNRGEC | 0.149 nM | 0.149 nM |
| 19.6 nM | BC3B53 (bispecific antibody, human IgG1, kappa, L234A L235A, IgG1 BCMAxCD3; HC1: CD3B2030-N106Q LH scFv-Fc; also called BC3B53.001; B2030 LH NtoQ) EIVLTQSPATLSASPGERVTLSCSASSSVSYMNWYQQKPGQAPRRWIYDSSKLASGVPARFSGSGSGRDYTLTISSLEPEDFAVYYCQQWSRNPPTFGGGTKVEIKGGSEGKSSGSGSESKSTGGSQVQLVQSGAEVKKPGSSVKVSCKASGYTFTRSTMHWVKQAPGQGLEWIGYINPSSAYTNYNQKFQGRVTLTADKSTSTAYMELSSLRSEDTAVYYCASPQVHYDYQGFPYWGQGTLVTVSSEPKSSDKTHTCPPCPAPEAAGGPSVFLFPPKPKDTLMISRTPEVTCVVVSVSHEDPEVKFNWYVDGVEVHNAKTKPREEQYNSTYRVVSVLTVLHQDWLNGKEYKCKVSNKALPAPIEKTISKAKGQPREPQVYVYPPSREEMTKNQVSLTCLVKGFYPSDIAVEWESNGQPENNYKTTPPVLDSDGSFALVSKLTVDKSRWQQGNVFSCSVMHEALHNHYTQKSLSLSPG heavy: not shown light: EIVLTQSPGTLSLSPGERATLSCRASQSISSSFLTWYQQKPGQAPRLLIYGASSRATGIPDRFSGGGSGTDFTLTISRLEPEDFAVYYCQHYGSSPMYTFGQGTKLEIKRTVAAPSVFIFPPSDEQLKSGTASVVCLLNNFYPREAKVQWKVDNALQSGNSQESVTEQDSKDSTYSLSSTLTLSKADYEKHKVYACEVTHQGLSSPVTKSFNRGEC | 0.0278 nM | 0.0278 nM |
| 300 nM | BC3B122 (bispecific antibody, human IgG1, kappa, L234A L235A, IgG1 BCMAxCD3; HC1: CD3B2051-N106G LH scFv-Fc; also called BC3B122.001; B2051 LH NtoG) EIVLTQSPATLSASPGERVTLSCSASSSVSYMNWYQQKPGQAPRRLIYDSSKLASGVPARFSGSGSGRDYTLTISSLEPEDFAVYYCQQWSRNPPTFGGGTKVEIKGGSEGKSSGSGSESKSTGGSQVQLVQSGAEVKKPGSSVKVSCKASGYTFTRSTMHWVKQAPGQGLEWMGYINPSSAYTNYNQKFQGRVTLTADKSTSTAYMELSSLRSEDTAVYYCASPQVHYDYGGFPYWGQGTLVTVSSEPKSSDKTHTCPPCPAPEAAGGPSVFLFPPKPKDTLMISRTPEVTCVVVSVSHEDPEVKFNWYVDGVEVHNAKTKPREEQYNSTYRVVSVLTVLHQDWLNGKEYKCKVSNKALPAPIEKTISKAKGQPREPQVYVYPPSREEMTKNQVSLTCLVKGFYPSDIAVEWESNGQPENNYKTTPPVLDSDGSFALVSKLTVDKSRWQQGNVFSCSVMHEALHNHYTQKSLSLSPG heavy: not shown light: EIVLTQSPGTLSLSPGERATLSCRASQSISSSFLTWYQQKPGQAPRLLIYGASSRATGIPDRFSGGGSGTDFTLTISRLEPEDFAVYYCQHYGSSPMYTFGQGTKLEIKRTVAAPSVFIFPPSDEQLKSGTASVVCLLNNFYPREAKVQWKVDNALQSGNSQESVTEQDSKDSTYSLSSTLTLSKADYEKHKVYACEVTHQGLSSPVTKSFNRGEC | 4.36 nM | 4.36 nM |
| 73.3 nM | BC3B121 (bispecific antibody, human IgG1, kappa, L234A L235A, IgG1 BCMAxCD3; HC1: CD3B2051-N106A LH scFv-Fc; also called BC3B121.001; B2051 LH NtoA) EIVLTQSPATLSASPGERVTLSCSASSSVSYMNWYQQKPGQAPRRLIYDSSKLASGVPARFSGSGSGRDYTLTISSLEPEDFAVYYCQQWSRNPPTFGGGTKVEIKGGSEGKSSGSGSESKSTGGSQVQLVQSGAEVKKPGSSVKVSCKASGYTFTRSTMHWVKQAPGQGLEWMGYINPSSAYTNYNQKFQGRVTLTADKSTSTAYMELSSLRSEDTAVYYCASPQVHYDYAGFPYWGQGTLVTVSSEPKSSDKTHTCPPCPAPEAAGGPSVFLFPPKPKDTLMISRTPEVTCVVVSVSHEDPEVKFNWYVDGVEVHNAKTKPREEQYNSTYRVVSVLTVLHQDWLNGKEYKCKVSNKALPAPIEKTISKAKGQPREPQVYVYPPSREEMTKNQVSLTCLVKGFYPSDIAVEWESNGQPENNYKTTPPVLDSDGSFALVSKLTVDKSRWQQGNVFSCSVMHEALHNHYTQKSLSLSPG heavy: not shown light: EIVLTQSPGTLSLSPGERATLSCRASQSISSSFLTWYQQKPGQAPRLLIYGASSRATGIPDRFSGGGSGTDFTLTISRLEPEDFAVYYCQHYGSSPMYTFGQGTKLEIKRTVAAPSVFIFPPSDEQLKSGTASVVCLLNNFYPREAKVQWKVDNALQSGNSQESVTEQDSKDSTYSLSSTLTLSKADYEKHKVYACEVTHQGLSSPVTKSFNRGEC | 0.1 nM | 0.1 nM |
